Residue numbers refer to the chain shown, from its start. Names and notes keep the numbering of the source.
B1: AsHPPDm-F383Y-02: nucleotide sequence encoding Avena sativa HPPD with F383Y; vector DBN11795 (nucleic acid)
DNA: ATGCCACCTACTCCAGCTACAGCTACTGGTGCTGCTGCTGCTGCCGTTACTCCTGAGCACGCTGCCAGGTCATTCCCCAGGGTGGTTCGCGTGAACCCCAGATCTGATAGGTTCCCAGTTCTGAGCTTCCACCATGTTGAGCTGTGGTGCGCTGATGCTGCTTCTGCTGCTGGCAGGTTCTCTTTCGCTCTTGGTGCTCCACTCGCTGCTAGATCTGATCTGTCTACAGGAAATAGCGCTCATGCCTCACTCCTGCTTCGCTCAGGTGCTTTGGCCTTCCTCTTCACCGCTCCATATGCTCCCCCACCTCAGGAGGCTGCTACTGCTGCTGCTACAGCCTCCATTCCAAGCTTCTCAGCTGATGCCGCTAGAACCTTCGCTGCTGCTCATGGACTTGCCGTGAGGTCTGTTGGTGTTCGCGTGGCTGATGCTGCTGAGGCTTTCAGAGTTTCCGTTGCCGGCGGAGCTAGGCCAGCTTTCGCTCCTGCTGATTTGGGACATGGTTTCGGCCTGGCTGAGGTTGAGCTTTACGGTGACGTGGTTCTCCGCTTCGTGTCTTACCCAGATGAGACTGACCTGCCTTTCCTTCCCGGCTTCGAGAGAGTTTCCTCTCCTGGTGCCGTGGATTACGGCCTGACAAGGTTCGACCACGTGGTTGGAAACGTTCCCGAGATGGCTCCAGTGATCGATTACATGAAGGGCTTCCTTGGATTCCATGAGTTCGCCGAGTTCACTGCTGAGGACGTGGGAACCACTGAGTCCGGTTTGAACTCTGTGGTTCTCGCCAACAATTCTGAGGCTGTTTTGCTCCCTCTGAATGAGCCTGTGCATGGAACCAAGAGGAGAAGCCAGATTCAAACTTACCTGGAGTACCACGGTGGCCCTGGAGTTCAGCATATCGCCCTTGCTTCTAATGATGTGTTGCGCACACTCAGAGAGATGCGCGCCAGAACCCCCATGGGAGGTTTCGAGTTCATGGCCCCACCACAGGCTAAGTACTACGAGGGCGTTAGAAGGATTGCTGGAGACGTGTTGAGCGAGGAGCAGATCAAGGAGTGCCAAGAGCTGGGTGTTCTTGTGGATAGGGATGACCAGGGCGTTCTGCTTCAAATTTTCACTAAGCCAGTGGGCGACCGCCCTACATTCTATCTTGAGATGATTCAAAGAATCGGCTGCATGGAGAAGGATGAGGTTGGACAGGAGTACCAAAAGGGCGGATGCGGTGGCTTCGGAAAGGGTAACTTCAGCGAGTTGTTCAAGTCAATCGAGGACTACGAGAAGAGCCTCGAGGTGAAGCAGTCAGTGGTTGCCCAAAAGTCCTGA
modifications: AsHPPDm-F383Y-02 Nucleotide Sequence
notes: vector DBN11795
B2: AsHPPDm-F372A-F383Y-02: nucleotide sequence encoding Avena sativa HPPD with F372A+F383Y; vector DBN11796 (nucleic acid)
DNA: B1 DNA with T1114G, T1115C
modifications: AsHPPDm-F372A-F383Y-02 Nucleotide Sequence
notes: vector DBN11796

Tests used:
[1] = tested on: Arabidopsis thaliana T1 plants; test: Isoxaflutole tolerance of transgenic Arabidopsis thaliana T1 plants (spray, bleached leaf area grade, damage score); format: in vivo; settings: for Classification and statistics of the grade of pesticide damage Grade 0 / Classification and statistics of the grade of pesticide damage Grade 1 / Classification and statistics of the grade of pesticide damage Grade 2 / Classification and statistics of the grade of pesticide damage Grade 3: number of plants in grade;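 on Scores: Weighted damage index from 0 to 100 where higher means more damage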
Procedure, shortened: (§1)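 Read-out: per-plant damage grade 0–3 from proportion of bleached leaf area at 7 DAT (1 <50%, 2 >50%, 3 100%). Plants were T1 transformants, glufosinate-selected, plus wild-type CK, sprayed 18 days post-sowing. Rates: topramezone 25–200, isoxaflutole 35–280, mesotrione 52.5–420 g ai/ha.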

[2] = tested on: Arabidopsis thaliana T1 plants; test: Mesotrione tolerance of transgenic Arabidopsis thaliana T1 plants (spray, bleached leaf area grade, damage score); format: in vivo; set-up: Scores: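 damage score 0-100 computed as Σ(N×S)/(T×M)×100 over grades 0-3 with higher meaning more damage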; settings: for Classification and statistics of the grade of pesticide damage Grade 0 / Classification and statistics of the grade of pesticide damage Grade 1 / Classification and statistics of the grade of pesticide damage Grade 2 / Classification and statistics of the grade of pesticide damage Grade 3: number of plants in grade
Procedure, shortened: as §1

Molecule	Resistance evaluation ([1]; isoxaflutole 140 g ai/ha)	Scores ([1]; isoxaflutole 140 g ai/ha)	Classification and statistics of the grade of pesticide damage Grade 0 ([1]; isoxaflutole 140 g ai/ha)	Classification and statistics of the grade of pesticide damage Grade 1 ([1]; isoxaflutole 140 g ai/ha)	Classification and statistics of the grade of pesticide damage Grade 2 ([1]; isoxaflutole 140 g ai/ha)	Classification and statistics of the grade of pesticide damage Grade 3 ([1]; isoxaflutole 140 g ai/ha)	Resistance evaluation ([1]; isoxaflutole 280 g ai/ha)	Scores ([1]; isoxaflutole 280 g ai/ha)	Classification and statistics of the grade of pesticide damage Grade 0 ([1]; isoxaflutole 280 g ai/ha)	Classification and statistics of the grade of pesticide damage Grade 1 ([1]; isoxaflutole 280 g ai/ha)	Classification and statistics of the grade of pesticide damage Grade 2 ([1]; isoxaflutole 280 g ai/ha)	Classification and statistics of the grade of pesticide damage Grade 3 ([1]; isoxaflutole 280 g ai/ha)	Resistance evaluation ([2]; mesotrione 210 g ai/ha)	Scores ([2]; mesotrione 210 g ai/ha)	Classification and statistics of the grade of pesticide damage Grade 0 ([2]; mesotrione 210 g ai/ha)	Classification and statistics of the grade of pesticide damage Grade 1 ([2]; mesotrione 210 g ai/ha)	Classification and statistics of the grade of pesticide damage Grade 2 ([2]; mesotrione 210 g ai/ha)	Classification and statistics of the grade of pesticide damage Grade 3 ([2]; mesotrione 210 g ai/ha)	Resistance evaluation ([2]; mesotrione 420 g ai/ha)	Scores ([2]; mesotrione 420 g ai/ha)	other results
B1	Non-resistant	100	0	0	0	16	Non-resistant	100	0	0	0	16	Non-resistant	100	0	0	0	16	Non-resistant	100	Classification and statistics of the grade of pesticide damage Grade 0 ([2]; mesotrione 420 g ai/ha): 0; Classification and statistics of the grade of pesticide damage Grade 1 ([2]; mesotrione 420 g ai/ha): 0; Classification and statistics of the grade of pesticide damage Grade 2 ([2]; mesotrione 420 g ai/ha): 0; Classification and statistics of the grade of pesticide damage Grade 3 ([2]; mesotrione 420 g ai/ha): 16
B2	Moderately	33	5	6	5	0	Poorly	67	0	0	16	0	Moderately	33	5	6	5	0	Poorly resistant	52	Classification and statistics of the grade of pesticide damage Grade 0 ([2]; mesotrione 420 g ai/ha): 0; Classification and statistics of the grade of pesticide damage Grade 1 ([2]; mesotrione 420 g ai/ha): 8; Classification and statistics of the grade of pesticide damage Grade 2 ([2]; mesotrione 420 g ai/ha): 7; Classification and statistics of the grade of pesticide damage Grade 3 ([2]; mesotrione 420 g ai/ha): 1

Source: patent US20250043302A1, “MUTATED HYDROXYPHENYLPYRUVATE DIOXYGENASE POLYPEPTIDE, AND CODING GENE AND USE THEREOF” (BEIJING DABEINONG BIOTECHNOLOGY CO., LTD., priority 2021, published 2025)
